Data from the supplement of paper PMC10065799, “High-throughput profiling of sequence recognition by tyrosine kinases and SH2 domains using bacterial peptide display” (eLife, 2023).

Key:
Fes = Fes (UniProt P07332); experiment: phosphorylation enrichment, bacterial display (enrichment ratio); higher = better substrate or ligand; peptides without Tyr show the background
EPHB1 = EPHB1 (UniProt P54762); experiment: as above
Fyn = Fyn (UniProt P06241); experiment: as above
MERTK = MERTK (UniProt Q12866); experiment: as above
AncSZ = experiment: as above
Jak2 = Jak2 (UniProt O60674); experiment: as above
Chain of Jak2 (O60674 whole entry, looked up): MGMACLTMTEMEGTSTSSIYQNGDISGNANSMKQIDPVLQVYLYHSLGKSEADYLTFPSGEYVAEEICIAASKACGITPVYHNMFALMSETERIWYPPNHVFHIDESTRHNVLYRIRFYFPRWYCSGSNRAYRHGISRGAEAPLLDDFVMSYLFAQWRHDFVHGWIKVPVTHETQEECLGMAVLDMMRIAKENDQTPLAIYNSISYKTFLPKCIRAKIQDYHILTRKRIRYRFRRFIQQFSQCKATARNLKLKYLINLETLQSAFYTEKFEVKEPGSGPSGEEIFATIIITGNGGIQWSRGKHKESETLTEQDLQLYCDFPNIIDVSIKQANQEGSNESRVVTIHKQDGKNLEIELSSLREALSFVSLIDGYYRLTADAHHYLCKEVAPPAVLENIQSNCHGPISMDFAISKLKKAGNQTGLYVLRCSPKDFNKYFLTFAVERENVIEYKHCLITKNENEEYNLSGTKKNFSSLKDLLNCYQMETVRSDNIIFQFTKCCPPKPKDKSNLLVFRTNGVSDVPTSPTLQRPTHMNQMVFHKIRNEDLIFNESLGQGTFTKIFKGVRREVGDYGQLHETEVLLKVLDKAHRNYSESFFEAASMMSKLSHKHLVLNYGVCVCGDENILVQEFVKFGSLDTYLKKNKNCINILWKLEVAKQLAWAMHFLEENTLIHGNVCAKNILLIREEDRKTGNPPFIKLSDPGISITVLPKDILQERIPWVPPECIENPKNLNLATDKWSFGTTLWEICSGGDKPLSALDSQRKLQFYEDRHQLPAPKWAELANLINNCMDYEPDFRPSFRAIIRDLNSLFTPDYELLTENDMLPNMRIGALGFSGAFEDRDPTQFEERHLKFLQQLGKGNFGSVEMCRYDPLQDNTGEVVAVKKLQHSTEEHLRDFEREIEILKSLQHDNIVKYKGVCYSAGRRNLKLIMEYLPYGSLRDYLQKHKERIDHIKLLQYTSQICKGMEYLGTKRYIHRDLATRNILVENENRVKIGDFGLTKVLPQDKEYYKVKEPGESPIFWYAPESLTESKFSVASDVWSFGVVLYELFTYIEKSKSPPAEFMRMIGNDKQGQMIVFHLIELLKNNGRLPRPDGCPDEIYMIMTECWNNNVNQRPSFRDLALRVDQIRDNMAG

c-Src = experiment: as above
Hck = Hck (UniProt P08631); experiment: as above
Chain of Hck (P08631 whole entry, looked up): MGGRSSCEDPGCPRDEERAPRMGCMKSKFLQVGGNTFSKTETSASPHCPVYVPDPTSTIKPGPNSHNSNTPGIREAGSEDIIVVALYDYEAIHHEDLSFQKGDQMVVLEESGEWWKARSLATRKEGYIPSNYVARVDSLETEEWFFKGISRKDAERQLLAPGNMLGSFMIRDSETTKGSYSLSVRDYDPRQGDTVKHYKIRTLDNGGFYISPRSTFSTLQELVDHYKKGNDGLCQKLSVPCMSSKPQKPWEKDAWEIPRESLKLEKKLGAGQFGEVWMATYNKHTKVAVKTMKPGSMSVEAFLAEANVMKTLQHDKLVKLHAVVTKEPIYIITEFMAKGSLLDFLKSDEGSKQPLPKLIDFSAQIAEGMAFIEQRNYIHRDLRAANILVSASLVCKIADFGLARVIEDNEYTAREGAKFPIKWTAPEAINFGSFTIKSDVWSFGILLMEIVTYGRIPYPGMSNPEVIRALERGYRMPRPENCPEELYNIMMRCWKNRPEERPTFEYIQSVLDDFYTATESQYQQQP

FGFR3 = FGFR3 (UniProt P22607); experiment: as above
EPHB2 = EPHB2 (UniProt P29323); experiment: as above
Chain of EPHB2 (P29323 whole entry, looked up): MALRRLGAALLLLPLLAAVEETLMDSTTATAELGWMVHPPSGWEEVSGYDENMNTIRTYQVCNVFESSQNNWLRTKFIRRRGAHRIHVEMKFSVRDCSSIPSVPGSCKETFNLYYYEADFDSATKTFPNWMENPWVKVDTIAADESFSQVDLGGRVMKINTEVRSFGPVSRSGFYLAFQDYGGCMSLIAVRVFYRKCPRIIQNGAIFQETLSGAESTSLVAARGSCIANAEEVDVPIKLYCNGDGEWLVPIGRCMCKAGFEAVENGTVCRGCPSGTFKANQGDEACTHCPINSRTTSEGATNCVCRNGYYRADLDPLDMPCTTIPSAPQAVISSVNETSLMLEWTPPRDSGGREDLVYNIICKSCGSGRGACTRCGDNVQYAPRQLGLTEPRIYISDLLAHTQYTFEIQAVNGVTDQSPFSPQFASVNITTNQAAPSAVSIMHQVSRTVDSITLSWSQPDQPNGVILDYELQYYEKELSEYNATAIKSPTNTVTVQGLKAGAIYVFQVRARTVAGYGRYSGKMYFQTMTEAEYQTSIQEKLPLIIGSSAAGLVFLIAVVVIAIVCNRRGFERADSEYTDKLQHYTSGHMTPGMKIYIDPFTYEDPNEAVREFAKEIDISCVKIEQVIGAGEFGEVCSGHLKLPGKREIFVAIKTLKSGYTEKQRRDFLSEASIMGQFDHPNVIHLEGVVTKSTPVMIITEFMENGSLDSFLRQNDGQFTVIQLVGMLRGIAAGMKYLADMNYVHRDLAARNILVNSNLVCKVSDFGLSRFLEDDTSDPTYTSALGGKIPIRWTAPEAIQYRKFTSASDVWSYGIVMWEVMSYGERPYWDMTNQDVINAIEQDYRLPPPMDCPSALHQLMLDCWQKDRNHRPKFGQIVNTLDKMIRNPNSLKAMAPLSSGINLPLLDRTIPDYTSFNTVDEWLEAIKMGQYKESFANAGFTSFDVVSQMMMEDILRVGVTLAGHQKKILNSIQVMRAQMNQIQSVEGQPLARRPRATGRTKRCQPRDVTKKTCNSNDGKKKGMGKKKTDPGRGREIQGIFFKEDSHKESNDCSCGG

FGFR1 = FGFR1 (UniProt P11362); experiment: as above
Chain of FGFR1 (P11362 whole entry, looked up): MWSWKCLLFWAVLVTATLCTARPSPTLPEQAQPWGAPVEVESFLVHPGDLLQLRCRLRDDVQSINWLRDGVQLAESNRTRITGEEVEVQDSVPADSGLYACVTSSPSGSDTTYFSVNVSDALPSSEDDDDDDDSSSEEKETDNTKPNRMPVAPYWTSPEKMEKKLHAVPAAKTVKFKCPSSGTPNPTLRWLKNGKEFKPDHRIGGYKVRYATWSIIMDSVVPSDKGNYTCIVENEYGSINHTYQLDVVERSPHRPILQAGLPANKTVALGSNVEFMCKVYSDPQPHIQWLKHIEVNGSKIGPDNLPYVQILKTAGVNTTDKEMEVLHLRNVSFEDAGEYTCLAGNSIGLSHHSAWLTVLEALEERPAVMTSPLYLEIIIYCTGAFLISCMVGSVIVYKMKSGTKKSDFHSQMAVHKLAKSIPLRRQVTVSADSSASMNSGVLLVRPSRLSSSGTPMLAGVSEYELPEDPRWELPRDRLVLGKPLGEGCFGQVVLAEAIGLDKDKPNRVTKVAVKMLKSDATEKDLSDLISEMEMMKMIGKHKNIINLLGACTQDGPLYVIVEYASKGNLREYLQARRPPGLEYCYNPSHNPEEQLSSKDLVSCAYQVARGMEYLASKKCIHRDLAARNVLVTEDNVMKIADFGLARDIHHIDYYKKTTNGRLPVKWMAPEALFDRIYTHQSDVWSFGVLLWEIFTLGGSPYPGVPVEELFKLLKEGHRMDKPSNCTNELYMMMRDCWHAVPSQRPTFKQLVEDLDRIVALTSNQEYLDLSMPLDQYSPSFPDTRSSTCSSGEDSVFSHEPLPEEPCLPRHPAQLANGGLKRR

Fer (mouse) = experiment: as above
c-Abl (mouse) = experiment: as above
Grb2 SH2 = Grb2 SH2 (UniProt P62993); experiment: SH2 binding enrichment of the phosphorylated peptide, bacterial display (enrichment ratio); higher = better substrate or ligand; peptides without Tyr show the background
Chain of Grb2 SH2 (P62993 whole entry, looked up): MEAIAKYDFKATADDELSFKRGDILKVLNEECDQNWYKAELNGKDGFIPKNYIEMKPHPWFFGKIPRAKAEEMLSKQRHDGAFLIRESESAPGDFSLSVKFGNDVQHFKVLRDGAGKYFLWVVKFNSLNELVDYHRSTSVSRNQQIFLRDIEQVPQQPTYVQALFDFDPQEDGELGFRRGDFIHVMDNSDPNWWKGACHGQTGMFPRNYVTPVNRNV

SHP2-C SH2 = experiment: as above
c-Src SH2 = experiment: as above
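Wherever SH2 binding enrichment of the phosphorylated peptide, bacterial display is given: peptide library displayed on the E. coli surface as eCPX fusions, selected cells deep-sequenced, score is each peptide's frequency after selection divided by its frequency in the input.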
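Wherever phosphorylation enrichment, bacterial display is given: 11-residue human phosphosite peptides and single-mutation variants displayed on the E. coli surface, counted by deep sequencing, each peptide's frequency after selection divided by its frequency in the unselected input library; frequency after pTyr selection over input frequency; kinase dosed for 20-30% of maximal phosphorylation in three min.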

Chain of Fes (P07332 whole entry, looked up): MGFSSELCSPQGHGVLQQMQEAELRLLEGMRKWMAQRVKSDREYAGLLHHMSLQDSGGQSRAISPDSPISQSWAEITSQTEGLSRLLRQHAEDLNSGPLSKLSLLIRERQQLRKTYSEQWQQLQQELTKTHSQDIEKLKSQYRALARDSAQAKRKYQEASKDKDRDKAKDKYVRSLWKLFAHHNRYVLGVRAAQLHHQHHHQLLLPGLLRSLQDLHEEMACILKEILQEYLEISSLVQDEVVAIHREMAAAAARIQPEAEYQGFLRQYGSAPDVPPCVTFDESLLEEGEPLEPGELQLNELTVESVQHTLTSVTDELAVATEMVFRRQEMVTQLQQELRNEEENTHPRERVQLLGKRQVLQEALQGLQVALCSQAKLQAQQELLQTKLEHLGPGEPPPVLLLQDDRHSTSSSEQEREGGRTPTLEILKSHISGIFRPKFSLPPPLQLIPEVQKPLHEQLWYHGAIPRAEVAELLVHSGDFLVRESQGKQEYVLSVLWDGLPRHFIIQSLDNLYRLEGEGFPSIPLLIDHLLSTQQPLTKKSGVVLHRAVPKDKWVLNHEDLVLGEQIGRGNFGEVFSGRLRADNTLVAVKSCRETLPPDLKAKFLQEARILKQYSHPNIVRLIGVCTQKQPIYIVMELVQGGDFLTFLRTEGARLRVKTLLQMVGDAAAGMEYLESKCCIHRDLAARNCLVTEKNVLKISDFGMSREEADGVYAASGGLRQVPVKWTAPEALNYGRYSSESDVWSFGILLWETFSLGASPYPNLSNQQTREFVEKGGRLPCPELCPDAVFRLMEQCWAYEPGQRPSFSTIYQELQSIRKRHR

Row | Sequence | phosphorylation enrichment (Fes) | phosphorylation enrichment (EPHB1) | phosphorylation enrichment (Fyn) | phosphorylation enrichment (MERTK) | phosphorylation enrichment (AncSZ) | phosphorylation enrichment (Jak2) | phosphorylation enrichment (c-Src) | phosphorylation enrichment (Hck) | phosphorylation enrichment (FGFR3) | phosphorylation enrichment (EPHB2) | phosphorylation enrichment (FGFR1) | phosphorylation enrichment (Fer (mouse)) | phosphorylation enrichment (c-Abl (mouse)) | SH2 binding enrichment (Grb2 SH2) | SH2 binding enrichment (SHP2-C SH2) | SH2 binding enrichment (c-Src SH2)
1 | KEIHAYRKLLE [LMNA_Y376_M371K] | 0.76 | 0.397 | 0.344 | 0.414 | 0.63 | 0.59 | 0.506 | 0.476 | 0.487 | 0.481 | 0.429 | 0.468 | 0.489 | 0.68 | 0.569 | 0.459
2 | KENITYMKREQ [L1TD1_Y24] | 1.05 | 0.498 | 0.443 | 0.453 | 0.827 | 0.828 | 0.58 | 0.554 | 0.554 | 0.514 | 0.462 | 0.431 | 0.703 | 0.809 | 0.692 | 0.498
3 | KFFRVYQGQQP [MUTYH_Y494_V490F] | 0.842 | 0.452 | 0.623 | 0.447 | 0.898 | 0.627 | 0.457 | 0.495 | 0.78 | 0.507 | 0.592 | 0.431 | 0.652 | 0.953 | 0.596 | 0.633
4 | KFMVGYEMIAQ [GALT_Y339_L342I] | 1.06 | 0.58 | 0.444 | 0.457 | 1.03 | 0.956 | 0.427 | 0.507 | 0.723 | 0.569 | 0.492 | 0.487 | 0.696 | 0.914 | 0.884 | 7.36
5 | KGEDFYCVTYH [FHL1_Y149_C153Y] | 1.5 | 1.09 | 2.6 | 3.58 | 1.84 | 1.25 | 2.37 | 1.71 | 1.22 | 1.12 | 1.1 | 2.15 | 1.04 | 0.562 | 0.484 | 0.39
6 | KGERGYPGTPG [COL4A1_Y348] | 0.433 | 0.336 | 0.311 | 0.356 | 0.384 | 0.359 | 0.419 | 0.38 | 0.406 | 0.372 | 0.354 | 0.399 | 0.42 | 0.832 | 0.77 | 0.482
7 | KGSEGYLAATF [NF1_Y2503_YF] | 0.658 | 0.41 | 0.501 | 0.514 | 0.654 | 0.709 | 0.564 | 0.416 | 0.549 | 0.402 | 0.444 | 0.45 | 0.634 | 0.766 | 0.847 | 0.474
8 | KHASTYREAAT [DEAF1_Y483] | 0.518 | 0.328 | 0.322 | 0.359 | 0.425 | 0.356 | 0.307 | 0.344 | 0.39 | 0.324 | 0.339 | 0.363 | 0.52 | 0.874 | 0.755 | 0.625
9 | KHGGNYVPAPE [OSCP1_Y237_K242E] | 0.626 | 0.369 | 0.398 | 0.345 | 0.754 | 0.471 | 0.405 | 0.325 | 0.477 | 0.471 | 0.403 | 0.36 | 0.455 | 0.619 | 0.614 | 0.456
10 | KIFPEYLSNWT [AIFM1_Y347_L344F] | 0.916 | 0.513 | 0.43 | 0.47 | 0.914 | 1.18 | 0.479 | 0.488 | 0.721 | 0.512 | 0.811 | 0.502 | 0.657 | 0.944 | 0.614 | 0.628
11 | KINKMYSDHAM | 0.463 | 0.351 | 0.349 | 0.432 | 0.495 | 0.5 | 0.416 | 0.308 | 0.364 | 0.285 | 0.315 | 0.408 | 0.499 | 0.705 | 0.602 | 0.354
12 | KKFPDYIQIAM [SGMS2_Y59_YF] | 1.06 | 4.26 | 0.468 | 0.461 | 1.13 | 1.07 | 0.556 | 0.496 | 5.17 | 0.672 | 8.61 | 0.427 | 0.7 | 0.93 | 0.946 | 0.76
13 | KKFVPYYDLFM [IPO5_Y530_E525K] | 1.05 | 4.25 | 2.06 | 6.5 | 0.895 | 1.07 | 2.32 | 2.1 | 3.24 | 4.22 | 4.49 | 1.3 | 0.686 | 1.6 | 1.14 | 2.43
14 | KKHIPYSEHKS [CSNK1G2_Y206_R207S] | 1.52 | 0.488 | 0.374 | 0.606 | 0.718 | 1.37 | 0.781 | 0.565 | 1.1 | 0.644 | 0.483 | 0.72 | 1.53 | 1.62 | 1.41 | 1.51
15 | KKYPDYIQIAR [SGMS2_Y59_M64R] | 0.984 | 7.96 | 0.367 | 0.392 | 0.98 | 1.28 | 0.47 | 0.48 | 2.55 | 1.22 | 3.97 | 0.388 | 0.702 | 1.23 | 0.808 | 0.858
16 | KLLLKYSFHDA [RNF213_Y4141_V4146A] | 1.3 | 0.616 | 0.367 | 0.39 | 1.05 | 0.993 | 0.385 | 0.418 | 0.672 | 0.615 | 0.484 | 0.476 | 0.616 | 1.16 | 1.02 | 0.81
17 | KLQKFYRKNPD [EHHADH_Y683_Q685K_YF] | 0.541 | 0.348 | 0.389 | 0.449 | 0.447 | 0.469 | 0.48 | 0.402 | 0.329 | 0.32 | 0.401 | 0.302 | 0.549 | 0.86 | 0.702 | 0.638

Row | Sequence | phosphorylation enrichment (Fes) | phosphorylation enrichment (EPHB1) | phosphorylation enrichment (Fyn) | phosphorylation enrichment (MERTK) | phosphorylation enrichment (AncSZ) | phosphorylation enrichment (Jak2) | phosphorylation enrichment (c-Src) | phosphorylation enrichment (Hck) | phosphorylation enrichment (FGFR3) | phosphorylation enrichment (EPHB2) | phosphorylation enrichment (FGFR1) | phosphorylation enrichment (Fer (mouse)) | phosphorylation enrichment (c-Abl (mouse)) | SH2 binding enrichment (Grb2 SH2) | SH2 binding enrichment (SHP2-C SH2) | SH2 binding enrichment (c-Src SH2)
18 | KMKGDYFRSLA [YWHAG_Y130_Y133S_YF] | 0.675 | 0.457 | 0.399 | 0.437 | 0.676 | 0.633 | 0.456 | 0.484 | 0.602 | 0.361 | 0.456 | 0.436 | 0.521 | 0.917 | 0.825 | 0.753
19 | KNAEKYAEEDW [HSPA9_Y568_R573W] | 1.56 | 0.667 | 0.533 | 0.533 | 1.32 | 1.21 | 0.51 | 0.52 | 0.776 | 0.727 | 0.763 | 0.487 | 0.895 | 0.735 | 0.541 | 0.541
20 | KNKNRYKNVLP [PTPN11_Y279_I282V] | 0.593 | 0.426 | 0.372 | 0.473 | 0.551 | 0.767 | 0.449 | 0.412 | 0.716 | 0.398 | 0.419 | 0.414 | 0.881 | 0.734 | 0.886 | 0.803
21 | KNNDGNIDYAE [MCFD2_Y135_Y135N] | 1.13 | 0.572 | 0.462 | 0.479 | 1.13 | 0.776 | 0.388 | 0.524 | 0.916 | 0.53 | 0.501 | 0.453 | 0.62 | 1.05 | 0.792 | 0.694
22 | KRFAFYRDSPR [FOXE3_Y108_E103K] | 0.643 | 0.327 | 0.446 | 0.437 | 0.538 | 0.482 | 0.414 | 0.387 | 0.479 | 0.387 | 0.443 | 0.421 | 0.526 | 1.14 | 0.974 | 0.81
23 | KRGIDYILRHM [FRMD1_Y225] | 0.872 | 0.494 | 0.414 | 0.396 | 0.792 | 0.654 | 0.387 | 0.396 | 0.592 | 0.463 | 0.457 | 0.415 | 0.567 | 1.95 | 1.99 | 1.68
24 | KTKIGYSPLHQ [ANK1_Y735_L733I] | 0.512 | 0.326 | 0.408 | 0.466 | 0.489 | 0.49 | 0.425 | 0.435 | 0.384 | 0.449 | 0.422 | 0.434 | 0.456 | 0.903 | 0.827 | 0.398
25 | KTVQDYLEKFY [MMP8_Y36] | 1.31 | 0.673 | 0.708 | 0.517 | 1.36 | 1.21 | 0.674 | 0.539 | 0.707 | 0.711 | 0.627 | 0.562 | 1.23 | 1.13 | 0.686 | 0.51
26 | KVALVYGQMNQ [ATP5F1B_Y269_E274Q] | 1.27 | 0.496 | 2.16 | 0.425 | 0.726 | 0.841 | 3.17 | 1.78 | 0.634 | 0.641 | 0.424 | 0.506 | 0.829 | 0.703 | 0.636 | 0.434
27 | KVNKIYYPDFI [LIG3_Y767] | 0.762 | 0.536 | 0.607 | 1.05 | 0.727 | 0.68 | 0.724 | 0.668 | 3.46 | 0.45 | 4.13 | 0.481 | 0.589 | 0.834 | 0.695 | 0.636
28 | KVVVPYEPPEV [TP53_Y220_S215K] | 0.866 | 0.452 | 0.458 | 0.402 | 0.921 | 1 | 0.408 | 0.406 | 0.632 | 0.573 | 0.442 | 0.38 | 1.02 | 0.709 | 0.472 | 0.86
29 | KWELRYMHSRV [ABCD1_Y281_G277W] | 1.31 | 0.517 | 0.458 | 0.369 | 1.09 | 1.07 | 0.37 | 0.474 | 0.685 | 0.528 | 0.393 | 0.457 | 0.759 | 1.06 | 0.878 | 0.716
30 | LAAPKYKLNVD [SMARCA2_Y1190_A1188P] | 0.961 | 0.205 | 0.546 | 0.346 | 0.46 | 0.353 | 0.44 | 0.551 | 0.518 | 0.307 | 0.258 | 0.291 | 0.422 | 0.713 | 0.592 | 0.325
31 | LAIERYVVVCK [RHO_Y136] | 2.33 | 0.938 | 0.597 | 0.732 | 1.83 | 1.9 | 0.859 | 0.862 | 1.21 | 1.09 | 0.766 | 1.32 | 1.51 | 0.674 | 0.679 | 0.476
32 | LAVPLYKNGVK [CPS1_Y1069] | 0.856 | 1.09 | 0.777 | 1.42 | 1.23 | 0.933 | 0.416 | 0.574 | 0.836 | 1.67 | 0.904 | 1.04 | 0.777 | 1.12 | 0.708 | 0.512
33 | LDCNEYFRDLN [HPRT1_Y198_Y195C] | 1.73 | 0.933 | 0.906 | 0.687 | 1.82 | 1.5 | 0.487 | 0.911 | 1.34 | 0.922 | 0.966 | 0.697 | 1.15 | 1.07 | 0.927 | 0.704
